Results published in paper PMC2660430.

B1: Plrx (wild type plasmoredoxin, recombinant) [P. falciparum] / PfSAHH (recombinant S-adenosyl-L-homocysteine hydrolase) [P. falciparum strain 3D7] (parent)
chain 1: MACQVDNPPKTYPNDKTAEYEKYANYMNYLYYYQNNELKKIDSSYFKDKYLGLFFGASWCKYCVTFIDSLNIFKKNFPNVEIIYIPFDRTYQEYQSFLKNTNFYALPFDNYLYICKKYQIKNLPSFMLITPNNNILVKDAAQLIKTDEYINNLKSLIKNYIIHPKTFQFNNRFFDLFRN
chain 2: MVENKSKVKDISLAPFGKMQMEISENEMPGLMRIREEYGKDQPLKNAKITGCLHMTVECALLIETLQKLGAQIRWCSCNIYSTADYAAAAVSTLENVTVFAWKNETLEEYWWCVESALTWGDGDDNGPDMIVDDGGDATLLVHKGVEYEKLYEEKNILPDPEKAKNEEERCFLTLLKNSILKNPKKWTNIAKKIIGVSEETTTGVLRLKKMDKQNELLFTAINVNDAVTKQKYDNVYGCRHSLPDGLMRATDFLISGKIVVICGYGDVGKGCASSMKGLGARVYITEIDPICAIQAVMEGFNVVTLDEIVDKGDFFITCTGNVDVIKLEHLLKMKNNAVVGNIGHFDDEIQVNELFNYKGIHIENVKPQVDRITLPNGNKIIVLARGRLLNLGCATGHPAFVMSFSFCNQTFAQLDLWQNKDTNKYENKVYLLPKHLDEKVALYHLKKLNASLTELDDNQCQFLGVNKSGPFKSNEYRY
B2: PfTrx1 (wild type thioredoxin) [P. falciparum] / PfSAHH (recombinant S-adenosyl-L-homocysteine hydrolase) [P. falciparum strain 3D7] (parent)
chain 1: MVKIVTSQAEFDSIISQNELVIVDFFAEWCGPCKRIAPFYEECSKTYTKMVFIKVDVDEVSEVTEKENITSMPTFKVYKNGSSVDTLLGANDSALKQLIEKYAA
chain 2: B1 chain 2

Variants of: B1
Test: SPR
Conditions: with PfSAHH (recombinant S-adenosyl-L-homocysteine hydrolase) [P. falciparum strain 3D7]; Maximum response at end of analyte injection; SAHH on the sensor surface oxidized with 0.5 mM DTNB; 30 µl of analyte, 10 µM in HBS buffer; pre-injection …; parent: 99; read off a plot

Q: For chain 1 C63S, which response (RD (normalized)) is on record?
A: 28

Variants of: B2
Test: SPR
Conditions: with PfSAHH (recombinant S-adenosyl-L-homocysteine hydrolase) [P. falciparum strain 3D7]; Maximum response at end of analyte injection; SAHH on the sensor surface oxidized with 0.5 mM DTNB; 30 µl of analyte, 10 µM in HBS buffer; pre-injection …; parent: 28; read off a plot

Q: With chain 1 C30S C33S as the variant, how does the response (RD (normalized)) read?
A: 21

Q: With chain 1 C33S as the variant, how does the response (RD (normalized)) read?
A: 97
